Data on 7 molecules can be found in patent publication EP1644414B1 (Crucell Holland B.V., dated 2015).

The chains are these.
B1: 03-013 (antibody, V domains shown)
VH: EVQLVESGGGLVQPGGSLRLSCAASGFTFSDHYMDWVRQAPGKGLEWVGRTRNKANSYTTEYAASVKGRFTISRDDSKNSLYLQMNSLKTEDTAVYYCAKGLTPLYFDYWGQGTLVTVSS
VL: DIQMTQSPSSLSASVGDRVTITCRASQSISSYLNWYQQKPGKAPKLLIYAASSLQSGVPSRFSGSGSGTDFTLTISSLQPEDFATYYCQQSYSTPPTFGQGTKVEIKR
B2: 03-014 (antibody, V domains shown)
VH: B1 VH with K100R, L102I, T103S, L105F
VL: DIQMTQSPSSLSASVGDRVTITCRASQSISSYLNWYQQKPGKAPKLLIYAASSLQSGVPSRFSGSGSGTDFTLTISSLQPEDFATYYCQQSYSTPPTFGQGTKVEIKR
B3: 03-006 (antibody, V domains shown)
VH: EVQLVESGGGLVQPGGSLRLSCAASGFTFSGYPMHWVRQAPGKGLEWVAVISYDGSNKYYADSVKGRFTISRDNSKNTLYLQMNSLRAEDTAVYYCAKDGSPRTPSFDYWGQGTLVTVSS
VL: DIQMTQSPHSLSASVGDRVTITCRASQGISNYLAWYQQKPGKVPKLLIYAASTLQSGVPSRFSGSGSGTDFTLTISSLQPEDVGVYYCQQRFRTPVTFGQGTKLEIKR
B4: 03-001 (antibody, V domains shown)
VH: EVQLVESGGGLVKPGGSLRLSCAASGFTFSGYSMNWVRQAPGKGLEWVSSISGGSTYYADSRKGRFTISRDNSKNTLYLQMNNLRAEDTAVYYCARHRFRHVFDYWGQGTLVTVSS
VL: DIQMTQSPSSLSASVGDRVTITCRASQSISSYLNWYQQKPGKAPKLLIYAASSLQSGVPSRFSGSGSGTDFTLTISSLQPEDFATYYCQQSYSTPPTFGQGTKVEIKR
B5: 03-002 (antibody, V domains shown)
VH: EVQLVESGGGLVKPGGSLRLSCAASGFTFSGYSMSWVRQAPGKGLEWVGRTRNKANSYTTEYAASVKGRFTISRDDSKNSLYLQMNSLKTEDTAVYYCARYYSRSLKAFDYWGQGTLVTVSS
VL: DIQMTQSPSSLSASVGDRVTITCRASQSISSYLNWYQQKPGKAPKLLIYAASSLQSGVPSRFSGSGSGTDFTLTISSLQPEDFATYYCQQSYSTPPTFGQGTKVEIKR
B6: 03-015 (antibody, V domains shown)
VH: EVQLVESGGGVVRPGGSLRLSCAASGFTFDDYGMSWVRQAPGKGLEWVSGINWNGGSTGYADSVKGRFTISRDNAKNSLYLQMNSLRAEDTAVYYCARGLSLRPWGQGTLVTVSS
VL: SSELTQDPAESVALGQTVRITCQGDSLRSYYASWYQQKPGQAPVLVIYGKNNRPSGIPDRFSGSSSGNTASLTITGAQAEDEADYYCNSRDSSGNHVVFGGGTKLTVLG
B7: 03-009 (antibody, V domains shown)
VH: EVQLVESGGGVVQPGRSLRLSCAASGFTFSDYPMNWVRQAPGKGLEWVSSISGSGGSTYYADSVKGRFTISRDNSKNTLYLQMNSLRAEDTAVYYCAKGLFMVTTYAFDYWGQGTLVTVSS
VL: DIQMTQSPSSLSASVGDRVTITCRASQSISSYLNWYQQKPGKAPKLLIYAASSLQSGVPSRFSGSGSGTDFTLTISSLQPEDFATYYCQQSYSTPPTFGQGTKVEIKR

Where a chain is given by its changes, count along the chain named.

The first test concerns the target S318-510 fragment (amino acids 318-510 of the S protein of SARS-CoV strain Frankfurt 1) (SARS-CoV strain Frankfurt 1, UniProt P59594 318-510). The test can be described thus: IgG ELISA on captured S318-510.
For the molecule B1, the binding result is on record as “binds”.

Regarding B2, the binding result is on record as “binds”.

B3: the binding result is reported as “binds”.

Regarding B4, the binding result is given as “no binding”.

On to B5, for which the binding result is recorded as “no binding”.

B6: the binding result is recorded as “no binding”.

Take B7: the binding result is listed as “no binding”.

A further test deals with full length S protein of SARS-CoV expressed on HEK293T cells (SARS-CoV strain Frankfurt 1, UniProt P59594 14-1255). The test can be described thus: flow cytometry, IgG 10 µg/ml.
B1: the binding result is “binds”.

On to B3, for which the binding result is on record as “binds”.

Take B6: the binding result is reported as “binds”.

The next test has as its target spike protein of SARS-CoV as present in the SARS-CoV preparation (SARS-CoV strain Frankfurt 1, UniProt P59594 14-1255). The experiment in a line: sandwich ELISA, detection with anti-spike rabbit sera IMG-542 and IMG-557. For orientation: ELISA stands for enzyme-linked immunosorbent assay.
With B1, the binding result is “binds”.

The target in a further test is S565 fragment (amino acids 1-565 of the S protein of SARS-CoV), myc-tagged (SARS-CoV strain Frankfurt 1, UniProt P59594 14-565). The experiment in a line: IgG ELISA on captured S565.
In the case of B1, the binding result was “binds”.

Consider B2, for which the binding result is “binds”.

B3: the binding result is “binds”.

B6: the binding result is “no binding”.
